The values that follow come from article doi:10.1101/2020.02.25.965475.

Numbering of substitutions follows the chain as printed.

What all share (experiment): EMSA
(In general: Mobility shift assays separate free from complexed probe on a gel.)

The target of one series is T1, FLAG-TEN N338Y (Cucumis sativus (cucumber), UniProt A0A0A0KSL1 1-395, N338Y).
T1 sequence: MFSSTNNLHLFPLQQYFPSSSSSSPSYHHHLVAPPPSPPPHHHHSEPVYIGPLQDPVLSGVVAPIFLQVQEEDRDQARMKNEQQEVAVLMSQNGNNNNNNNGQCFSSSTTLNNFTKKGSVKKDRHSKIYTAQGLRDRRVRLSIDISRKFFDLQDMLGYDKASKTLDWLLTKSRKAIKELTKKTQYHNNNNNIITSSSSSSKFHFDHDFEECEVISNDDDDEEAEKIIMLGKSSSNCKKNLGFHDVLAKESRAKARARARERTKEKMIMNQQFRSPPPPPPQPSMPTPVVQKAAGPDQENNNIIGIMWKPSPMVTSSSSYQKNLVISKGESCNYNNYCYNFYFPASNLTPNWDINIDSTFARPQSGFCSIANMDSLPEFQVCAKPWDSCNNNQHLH

Another series concerns the target T2, FLAG-ΔN121 (TCP+R+C130) (Cucumis sativus (cucumber), UniProt A0A0A0KSL1 122-395, del1-121).
T2 sequence: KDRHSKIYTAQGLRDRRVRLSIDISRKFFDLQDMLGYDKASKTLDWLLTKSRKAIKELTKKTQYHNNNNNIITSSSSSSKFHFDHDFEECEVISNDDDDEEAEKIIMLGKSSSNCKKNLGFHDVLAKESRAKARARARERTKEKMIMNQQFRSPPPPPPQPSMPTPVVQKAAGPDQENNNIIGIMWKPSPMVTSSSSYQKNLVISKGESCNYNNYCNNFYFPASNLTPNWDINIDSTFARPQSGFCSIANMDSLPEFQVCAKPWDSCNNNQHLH

A further series concerns the target T3, FLAG-TEN (Cucumis sativus (cucumber), UniProt A0A0A0KSL1 1-395).
T3 sequence: T1 sequence with Y338N

The target of the next series is T4, MBP-C (Cucumis sativus (cucumber), UniProt A0A0A0KSL1 265-395).
T4 sequence: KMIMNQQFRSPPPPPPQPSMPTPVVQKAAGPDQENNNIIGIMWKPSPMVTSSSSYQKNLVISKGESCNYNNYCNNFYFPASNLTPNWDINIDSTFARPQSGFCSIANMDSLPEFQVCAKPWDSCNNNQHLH

B1: GGTCCC probe (GTGGTCCCAC) (dsDNA)
DNA 1: AAATTAAGAATATTGTGGTCCCACTCAAATATAAAGTATTAATT
DNA 2: AATTAATACTTTATATTTGAGTGGGACCACAATATTCTTAATTT
In the case of B1, the binding result with FLAG-TEN N338Y was “binds”.

B2: CTCCGCC probe (dsDNA)
DNA 1: AAATTAAGAATATTTAACTCCGCCAATTCAAATATAAAGTATTAATT
DNA 2: AATTAATACTTTATATTTGAATTGGCGGAGTTAAATATTCTTAATTT
Regarding B2, the binding result with FLAG-ΔN121 (TCP+R+C130) is “binds”; in the series with FLAG-TEN it was “binds”; with FLAG-TEN N338Y, “no binding”; in the series with MBP-C it was “no binding”.
